In the supplement of paper PMC9112550, “Optimization of the antimicrobial peptide Bac7 by deep mutational scanning” (BMC Biology, 2022):

Test system: Escherichia coli TOP10
Assay: shrunken log2 fold change of peptide-encoding DNA abundance (4.5 h post-induction vs induction); higher = less antimicrobial activity (less host growth inhibition)
Settings: time post-induction: 4.5 h; library: site-saturation at positions 5, 18, 19, 20
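Also: peptides expressed intracellularly from a pBAD plasmid library in pooled LB shake-flask culture, induced with 0.3% L-arabinose, DNA abundance read by NGS, three biological replicates, DESeq2 with apeglm shrinkage.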

Sequence	shrunken log2 fold change
RRIRSRPPRLPRPRPRPESQPRP	0.0194
RRIRSRPPRLPRPRPRPRYMPRP	-0.664
RRIRARPPRLPRPRPRPDRKPRP	0.0521
RRIRTRPPRLPRPRPRPAILPRP	-0.157
RRIRFRPPRLPRPRPRPYFNPRP	-1.04
RRIRMRPPRLPRPRPRPVWRPRP	0.947
RRIRHRPPRLPRPRPRPHCGPRP	-0.0402
RRIRWRPPRLPRPRPRPQMRPRP	0.147
RRIRGRPPRLPRPRPRPLTWPRP	0.462
RRIRPRPPRLPRPRPRPMAYPRP	-0.126
RRIRRRPPRLPRPRPRPEHPPRP	3.32
RRIRFRPPRLPRPRPRPQWAPRP	0.136
RRIRDRPPRLPRPRPRPVTWPRP	0.0882
RRIRARPPRLPRPRPRPHCQPRP	0.0405
RRIRARPPRLPRPRPRPCMFPRP	0.0445
RRIRTRPPRLPRPRPRPHDEPRP	0.00408
RRIRERPPRLPRPRPRPPMFPRP	-0.203
RRIRYRPPRLPRPRPRPIIMPRP	-0.0214
RRIRDRPPRLPRPRPRPYISPRP	-0.176
RRIRARPPRLPRPRPRPMVWPRP	1.07
RRIRPRPPRLPRPRPRPFTQPRP	-0.0301
RRIRGRPPRLPRPRPRPAYAPRP	0.0503
RRIRCRPPRLPRPRPRPNPGPRP	-0.0632
RRIRCRPPRLPRPRPRPELCPRP	0.488
RRIRHRPPRLPRPRPRPPKLPRP	0.12

Sequence	shrunken log2 fold change
RRIRIRPPRLPRPRPRPWSEPRP	-0.0763
RRIRHRPPRLPRPRPRPGAWPRP	0.265
RRIRSRPPRLPRPRPRPHNDPRP	-0.309
RRIRQRPPRLPRPRPRPFDDPRP	-0.275
RRIRSRPPRLPRPRPRPMCLPRP	0.038
RRIRVRPPRLPRPRPRPYMVPRP	-0.292
RRIRGRPPRLPRPRPRPELWPRP	2.06
RRIRTRPPRLPRPRPRPIDMPRP	0.00748
RRIRFRPPRLPRPRPRPRNMPRP	-0.127
RRIRVRPPRLPRPRPRPVSKPRP	-0.249
RRIRARPPRLPRPRPRPKKSPRP	1.2
RRIRLRPPRLPRPRPRPCMNPRP	-0.07
RRIRDRPPRLPRPRPRPRCRPRP	-0.0929
RRIRMRPPRLPRPRPRPTQYPRP	0.248
RRIRNRPPRLPRPRPRPATRPRP	0.322
RRIRKRPPRLPRPRPRPQSQPRP	0.249
RRIRPRPPRLPRPRPRPLKDPRP	-0.115
RRIRTRPPRLPRPRPRPVCMPRP	-0.17
RRIRNRPPRLPRPRPRPGNSPRP	-0.0208
RRIRWRPPRLPRPRPRPCGNPRP	0.0696
RRIRARPPRLPRPRPRPMEHPRP	-0.223
RRIRERPPRLPRPRPRPWNLPRP	-0.00195
RRIRGRPPRLPRPRPRPFPAPRP	0.757
RRIRNRPPRLPRPRPRPYNGPRP	0.0167
RRIRHRPPRLPRPRPRPIAYPRP	-0.149

Sequence	shrunken log2 fold change
RRIRKRPPRLPRPRPRPYGCPRP	-0.00151
RRIRHRPPRLPRPRPRPYEYPRP	-0.4
RRIRPRPPRLPRPRPRPSLYPRP	-0.326
RRIRFRPPRLPRPRPRPKIDPRP	0.00783
RRIRNRPPRLPRPRPRPANRPRP	-0.029
RRIRMRPPRLPRPRPRPALTPRP	0.433
RRIRVRPPRLPRPRPRPNINPRP	-0.608
RRIRQRPPRLPRPRPRPMVHPRP	-0.0226
RRIRARPPRLPRPRPRPAQDPRP	0.232
RRIRGRPPRLPRPRPRPSRGPRP	0.605
RRIRYRPPRLPRPRPRPHGSPRP	-0.00822
RRIRPRPPRLPRPRPRPYKWPRP	-0.296
RRIRLRPPRLPRPRPRPNTNPRP	-0.576
RRIRQRPPRLPRPRPRPVIWPRP	0.124
RRIRQRPPRLPRPRPRPRELPRP	0.0285
RRIRVRPPRLPRPRPRPFNCPRP	-0.0327
RRIRWRPPRLPRPRPRPCIEPRP	-0.0674
RRIRIRPPRLPRPRPRPQVLPRP	-0.338
RRIRERPPRLPRPRPRPSIRPRP	-0.242
RRIRGRPPRLPRPRPRPAPQPRP	1.15
RRIRFRPPRLPRPRPRPKLCPRP	-0.14
RRIRIRPPRLPRPRPRPNQVPRP	-0.429
RRIRQRPPRLPRPRPRPFFEPRP	0.0893
RRIRSRPPRLPRPRPRPHKKPRP	-0.0645
RRIRPRPPRLPRPRPRPIEIPRP	-0.0794

Sequence	shrunken log2 fold change
RRIRKRPPRLPRPRPRPRYYPRP	-0.248
RRIRHRPPRLPRPRPRPLNRPRP	0.0215
RRIRERPPRLPRPRPRPALEPRP	0.0291
RRIRCRPPRLPRPRPRPGTRPRP	0.139
RRIRYRPPRLPRPRPRPDARPRP	-0.294
RRIRGRPPRLPRPRPRPRYCPRP	0.295
RRIRQRPPRLPRPRPRPPSWPRP	0.581
RRIRFRPPRLPRPRPRPHVEPRP	-0.00526
RRIRTRPPRLPRPRPRPWYCPRP	-0.153
RRIRERPPRLPRPRPRPELPPRP	-0.0646
RRIRRRPPRLPRPRPRPWSLPRP	0.016
RRIRTRPPRLPRPRPRPFVAPRP	-0.0696
RRIRQRPPRLPRPRPRPHYWPRP	0.0403
RRIRMRPPRLPRPRPRPTPSPRP	1.18
RRIRVRPPRLPRPRPRPYNIPRP	-1.26
RRIRARPPRLPRPRPRPDMWPRP	0.422
RRIRKRPPRLPRPRPRPGSEPRP	0.66
RRIRNRPPRLPRPRPRPMSAPRP	0.0853
RRIRVRPPRLPRPRPRPCFQPRP	-0.313
RRIRTRPPRLPRPRPRPSCDPRP	-0.347
RRIRSRPPRLPRPRPRPSGQPRP	-0.0423
RRIRTRPPRLPRPRPRPGTGPRP	0.257
RRIRVRPPRLPRPRPRPVDRPRP	0.257
RRIRVRPPRLPRPRPRPMSIPRP	-0.306
RRIRYRPPRLPRPRPRPAYPPRP	-0.422

Sequence	shrunken log2 fold change
RRIRGRPPRLPRPRPRPIVRPRP	0.211
RRIRGRPPRLPRPRPRPSMEPRP	0.467
RRIRSRPPRLPRPRPRPDACPRP	0.322
RRIRRRPPRLPRPRPRPDIKPRP	-0.374
RRIRTRPPRLPRPRPRPAQSPRP	0.343
RRIRRRPPRLPRPRPRPNSFPRP	-0.29
RRIRRRPPRLPRPRPRPHGIPRP	0.0963
RRIRMRPPRLPRPRPRPVFFPRP	0.207
RRIRNRPPRLPRPRPRPMHAPRP	0.0438
RRIRLRPPRLPRPRPRPCKHPRP	-0.0106
RRIRERPPRLPRPRPRPNETPRP	-0.0321
RRIRARPPRLPRPRPRPTYNPRP	-0.121
RRIRYRPPRLPRPRPRPCRFPRP	-0.241
RRIRARPPRLPRPRPRPQLYPRP	0.0997
RRIRTRPPRLPRPRPRPLHYPRP	-0.592
RRIRTRPPRLPRPRPRPGLKPRP	0.0372
RRIRSRPPRLPRPRPRPHVKPRP	-0.00963
RRIRFRPPRLPRPRPRPRCFPRP	-0.183
RRIRLRPPRLPRPRPRPKTWPRP	0.108
RRIRFRPPRLPRPRPRPQPSPRP	0.279
RRIRSRPPRLPRPRPRPYAFPRP	-0.487
RRIRIRPPRLPRPRPRPMIRPRP	-0.511
RRIRSRPPRLPRPRPRPVDQPRP	0.034
RRIRVRPPRLPRPRPRPSHAPRP	-0.24
RRIRLRPPRLPRPRPRPSDRPRP	-0.147

Sequence	shrunken log2 fold change
RRIRKRPPRLPRPRPRPPHNPRP	0.465
RRIRARPPRLPRPRPRPCRTPRP	0.0201
RRIRWRPPRLPRPRPRPLPPPRP	0.686
RRIRARPPRLPRPRPRPVSNPRP	0.296
RRIRGRPPRLPRPRPRPPVDPRP	0.953
RRIRIRPPRLPRPRPRPCHEPRP	-0.0297
RRIRRRPPRLPRPRPRPVAYPRP	0.263
RRIRLRPPRLPRPRPRPHPWPRP	-0.0939
RRIRNRPPRLPRPRPRPVDPPRP	0.0584
RRIRLRPPRLPRPRPRPIMQPRP	-0.271
RRIRIRPPRLPRPRPRPIVGPRP	0.00911
RRIRSRPPRLPRPRPRPNYEPRP	-0.609
RRIRLRPPRLPRPRPRPFPIPRP	-0.0478
RRIRTRPPRLPRPRPRPQTGPRP	-0.128
RRIRSRPPRLPRPRPRPKGRPRP	0.0764
RRIRVRPPRLPRPRPRPRERPRP	0.578
RRIRQRPPRLPRPRPRPMWNPRP	-0.123
RRIRFRPPRLPRPRPRPSPYPRP	-0.481
RRIRERPPRLPRPRPRPPGMPRP	0.0408
RRIRYRPPRLPRPRPRPVYCPRP	-0.416
RRIRARPPRLPRPRPRPTLYPRP	-0.034
RRIRMRPPRLPRPRPRPFHFPRP	-0.313
RRIRTRPPRLPRPRPRPGTEPRP	0.0787
RRIRRRPPRLPRPRPRPVEHPRP	0.0989
RRIRCRPPRLPRPRPRPWTPPRP	-0.131
